From patent US20080044405A1 (Harvard, published 2008)

Legend:
[1] = biological target: T1, HLA-DR1 (soluble, produced by Drosophila S2 cell lines) (human); experiment: fluorescence polarization, DR1-CLIP-AlexaFluor488 0.1 uM at 37 C in the presence of 100 uM KAuCl4, no DM, no excess HA peptide
[2] = biological target: T1, HLA-DR1 (soluble, produced by …); experiment: fluorescence polarization, DR1-CLIP-AlexaFluor488 0.1 uM at 37 C in the presence of 100 uM K2PdCl4, no DM, no excess HA peptide
[3] = biological target: T1, HLA-DR1 (soluble, produced by …); experiment: fluorescence polarization, DR1-CLIP-AlexaFluor488 0.1 uM at 37 C in the presence of 100 uM K2PtCl4, no DM, no excess HA peptide
[4] = biological target: T1, HLA-DR1 (soluble, produced by …); experiment: fluorescence polarization, DR1-CLIP-AlexaFluor488 0.1 uM at 37 C in the presence of 100 uM cisplatin, no DM, no excess HA peptide
[5] = biological target: T1, HLA-DR1 (soluble, produced by …); experiment: fluorescence polarization, DR1-CLIP-AlexaFluor488 0.1 uM at 37 C with DM (0.1 uM) and excess unlabeled HA peptide (100 uM), no metal
[6] = biological target: T1, HLA-DR1 (soluble, produced by …); experiment: fluorescence polarization, DR1-CLIP-AlexaFluor488 0.1 uM at 37 C without DM, with excess unlabeled HA peptide (100 uM), no metal (intrinsic dissociation)

B1: Alexa-Fluor 488-labeled CLIP peptide (peptide)
peptide: CPVSKMRMATPLLMQA
modifications: Cys labelled with AlexaFluor 488 C5 maleimide
notes: an N-terminal Cys is added to CLIP(87-101); also called af-CLIP; CLIP-AlexaFluor488
t1/2 of CLIP dissociation [1]: 2.76 h
t1/2 of CLIP dissociation [2]: 1.59 h
t1/2 of CLIP dissociation [3]: 3.05 h
t1/2 of CLIP dissociation [4]: 4.34 h
t1/2 of CLIP dissociation [5]: 8.66 h
t1/2 of CLIP dissociation [6]: 94.6 h
